Reference: patent US20190389970A1

Experiments:
Free BSA (Sigma A6003) [1] = target: Free BSA (Sigma A6003) (UniProt P02769); assay: ELISA, free BSA coated at 500 ng/well in sodium bicarbonate, gamma detection, antibody at 10 µg/ml
Free BSA (Sigma A6003) [2] = target: Free BSA (Sigma A6003) (UniProt P02769); assay: ELISA, free BSA coated at 500 ng/well in sodium bicarbonate, gamma detection, antibody at 1 µg/ml
Free BSA (Sigma A6003) [3] = target: Free BSA (Sigma A6003) (UniProt P02769); assay: ELISA, free BSA coated at 500 ng/well in sodium bicarbonate, gamma detection, antibody at 0.1 µg/ml
Free BSA (Sigma A6003) [4] = target: Free BSA (Sigma A6003) (UniProt P02769); assay: ELISA, free BSA coated at 300 ng/well, anti-IgG (gamma) detection

Chain of UniProt P02769 (P02769 25-607 limits assumed): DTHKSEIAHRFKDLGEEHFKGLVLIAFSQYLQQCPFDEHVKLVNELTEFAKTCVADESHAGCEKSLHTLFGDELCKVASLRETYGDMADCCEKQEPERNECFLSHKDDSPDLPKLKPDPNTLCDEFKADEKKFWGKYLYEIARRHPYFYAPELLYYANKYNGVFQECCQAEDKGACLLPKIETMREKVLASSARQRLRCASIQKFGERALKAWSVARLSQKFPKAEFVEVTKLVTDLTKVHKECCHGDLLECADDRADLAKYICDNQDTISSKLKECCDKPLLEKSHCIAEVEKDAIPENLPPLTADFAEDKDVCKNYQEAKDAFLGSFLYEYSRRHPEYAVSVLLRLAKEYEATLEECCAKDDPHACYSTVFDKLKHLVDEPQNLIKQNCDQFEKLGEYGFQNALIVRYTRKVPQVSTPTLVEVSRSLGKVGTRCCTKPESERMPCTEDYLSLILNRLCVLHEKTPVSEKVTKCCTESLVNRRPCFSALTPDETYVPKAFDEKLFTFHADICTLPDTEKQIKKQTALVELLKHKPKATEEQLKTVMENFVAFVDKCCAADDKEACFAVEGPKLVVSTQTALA

Row | Binder | OD (Free BSA (Sigma A6003) [1]) | OD (Free BSA (Sigma A6003) [2]) | OD (Free BSA (Sigma A6003) [3]) | OD (Free BSA (Sigma A6003) [4])
1 | 6B5 (antibody, V domains shown) VH: QVQLQQSDAELVKPGASVKISCKVSGYTFTDHTIHWMKQRPEQGLEWIGYNYPRDGSTKYNEKFKGKATLTADKSSSTAYMQLNSLTSEDSAVYFCAKGFITTVVPSAYWGQGTLVTVSA VL: DVQITQSPSYLAASPGETITINCRASKSISKYLAWYQEKPGKTNKLLIYSGSTLQSGIPSRFSGSGSGTDFTLTISSLEPEDFAMYYCQQHNEYPWTFGGGTKLEIK | 0.15 OD | 0.119 OD | 0.079 OD | 1.29 OD
2 | 6C8 (antibody, V domains shown) VH: QVQLQQSGAELVKPGASVKISCKASGYAFSSYWMNWVKQRPGKGLEWIGQIYPGDGDTNYNGKFKGKATLTADKSSSTAYMQLSSLTSEDSAVYFCTRRCYYGLYFDVWGTGTTVTVSS VL: DIKMTQSPSSRYASLGERVTITCKASQDINRYLSWFQQKPGKSPKTLIYRANRLVDGVPSRFSGSGSGQDYSLTISSLEYEDMGIYYCLQYDEFPYTFGGGTKLEIK | 0.062 OD | 0.057 OD | 0.056 OD | 0.098 OD
3 | 7B10 (antibody, IgM, V domains shown) VH: QVQLQQSGAELAKPGASVKLSCKASGYTFTSYWMHWVKQRPGQGLEWIGYINPSSGYTKYNQKFKDKATLTADKSSSTAYMQLSSLTYEDSAVYYCARGGYYGFAYWGQGTLVTVSA VL: QIVLTQSPALMSASPGEKVTMTCSASSSVSYMYWYQQKPRSSPKPWIYLTSNLASGVPARFSGSGSGTSYSLTISSMEAEDAATYYCQQWSSNPLTFGAGTKLELK | – | – | – | 0.077 OD
4 | 9H10 (antibody, IgM, V domains shown) VH: QVQLKQSGPGLVQPSQSLSITCTVSGFSLTSYGVHWVRQSPGKGLEWLGVIWSGGSTDYNAAFISRLSISKDNSKSQVFFKMNSLQADDTAIYYCARNYGYDYAMDYWGQGTSVTVSS VL: DILLTQSPAILSVSPGERVSFSCRASQSIGTSIHWYQQRTNGSPRLLIKYASESISGIPSRFSGSGSGTDFTLSINSVESEDIADYYCQQSNSWPFTFGSGTKLEIK | – | – | – | 0.095 OD
5 | 9H11 (antibody, IgM, V domains shown) VH: QVQLQQSGAELAKPGASVKLSCKASGYTFTSYWMHWVKQRPGQGLEWIGYINPSSGYTKYNQKFKDKATLTADKSSSTAYMQLSSLTYEDSAVYYCARGGYYGFAYWGQGTLVTVSA VL: QIVLTQSPALMSASPGEKVTMTCSASSSVSYMYWYQQKPRSSPKPWIYLTSNLASGVPARFSGSGSGTSYSLTISSMEAEDAATYYCQQWSSNPLTFGAGTKLELK | – | – | – | 0.105 OD
